Target: T1, mutant CALR protein (Homo sapiens, UniProt P27797)
T1 construct: expressed in transfected cells; host or cells: TF-1 TpoR cells, pCX4-IRES eGFP vector
T1 sequence (P27797 with tags, fused parts or gaps limits assumed): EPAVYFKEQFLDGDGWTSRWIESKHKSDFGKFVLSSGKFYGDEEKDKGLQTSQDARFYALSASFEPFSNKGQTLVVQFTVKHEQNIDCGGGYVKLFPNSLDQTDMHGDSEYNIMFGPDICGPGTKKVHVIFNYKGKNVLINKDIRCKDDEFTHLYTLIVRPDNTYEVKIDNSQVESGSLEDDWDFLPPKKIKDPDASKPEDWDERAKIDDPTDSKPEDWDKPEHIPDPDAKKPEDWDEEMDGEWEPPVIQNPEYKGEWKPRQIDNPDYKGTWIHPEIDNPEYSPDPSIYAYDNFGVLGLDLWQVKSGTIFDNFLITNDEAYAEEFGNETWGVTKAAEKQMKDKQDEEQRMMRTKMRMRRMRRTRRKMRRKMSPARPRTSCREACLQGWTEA
Test: Western blot detection of mutant CALR by hybridoma clones
Format: binding
Experimental: Rats were immunised with a CALR mutant peptide “MMRTKMRMRRMRRT RRKMRRKMSPARPRTS” coupled to KLH, this peptide sequence is unique to CALR mutant. Serum from the immunised rats was screened by enzyme linked immunoassay, to verify a strong titre to the peptide immunogen, prior to performing the hybridoma fusion. Immunised rat spleen cells were harvested and a spleen single cell suspension was combined with Sp2/O myeloma cell line. The cell mixture was treated with polyethylene glycol plus DMEM prior to been plated in 96 well flat bottom plates. The expanding hybridomas were screened initially by ELISA and the positive clones were further verified by western blot, for reactivity to the expressed CALR mutant protein before subcloning the hybridomas for antibody production.
For immunoblotting of total lysates, cells were lysed in NP40 buffer containing 150 mM NaCl, 50 mM Tris pH 7.6, 1% NP-40, supplemented with protease inhibitors (Complete, Roche) and phosphatase inhibitor cocktails, and boiled for 5 minutes after addition of sample buffer (60 mM Tris pH 6.8, 5% glycerol, 1% SDS, 2% β-mercaptoethanol, 0.02% bromophenol blue) before SDS gel electrophoresis followed by Western blotting (Tvorogov et al, 2010). Primary antibodies against pERK (#9101), pSTAT5 (#9359), ERK (#4695), Actin (#4970), Caspase 3 (#14220), wildtype CALR (#12238) were purchased from Cell Signalling. Primary antibodies against pSTATI (#612233), pSTAT3 (#612357), STATI (#610186), STAT3 (#610190), STAT5 (#610192) and Anti-phosphotyrosine 4G10 (#610012) were purchased from BD Biosciences. Mutant CALR monoclonal antibody CAL2 was purchased from Dianova (Hamburg, Germany). Immunopreciptation of TpoR was performed in standard NP40 lysis buffer with additional 50 mM iodoacetamide to avoid any de novo disulfide bond formation post lysis. To reduce IgG background during immunoprecipitation anti-FLAG conjugated to magnetic beads (Sigma, #M8823) were used. For this same reason, anti-FLAG-HRP conjugated antibodies (Sigma, #A8592) were used in western blotting.

B1: 4D7: rat monoclonal IgG2a antibody against the mutant CALR neoepitope; VH SEQ ID NO: 5, VL SEQ ID NO: 7 (antibody, listed as Rattus rattus, V domains shown)
VH: QVQLQQSGAELAKPGSSVKISCKASGYTFTNYDMSWIKQRPGQALEWIGAINPGNGVTDYNEKFRGKATLTVDKSSSTAFMQLSSLTPEDTAVYHCAREYRDNYGYFDYWGQGVMVTVSS
VL: DIVLTQTPVSLSVTLGDQASISCRSSQSLEYSDGYTYLDWFLQKPGQSPQLLIYEVSSRFSGVPDRFIGRGSGTDFTLKISRVEPEDLGVYYCFQATHDPFTFGSGTKLEIK
- reactivity to the peptide and CALR mutant protein among hybridoma clones (3 hybridoma screens, FIG. 6A): strongest reactivity
- detection of mutant CALR protein by Western blot (TF-1 TpoR CALR^del61 vs CALR wild type TF-1 cells): able to detect mutant CALR protein in CALR^del61 cells but not in CALR wild type TF-1 cells

— patent publication US20250236667A1, “ANTIBODIES TO MUTANT CALRETICULIN AND USES THEREOF” (CENTRAL ADELAIDE LOCAL HEALTH NETWORK INC, priority 2021, published 2025)
